Measurements published in PMC2741464.

Tests used:
[1] = molecular target: T1, Ku70/Ku80 heterodimer, wild type (human, UniProt P12956;P13010 1-609;1-732); experiment: fluorescence polarization; re-reduced: 2 mM diamide then 5 mM DTT, probably nM; 50 mM Tris-HCl pH 7.8, 10 mM MgCl2, 50 mM NaCl (FP: plus 1 mM DTT, 0.5 ml; EMSA: 20 μl, 500 fmol DNA); oxidation 2 mM diamide 15 min on ice, re-reduction 5 mM DTT 15 min on ice; binding temperature not stated; settings: protein: recombinant; tags: His6 on Ku70; copies: 1;1; blunt
[2] = molecular target: T1, Ku70/Ku80 heterodimer, wild type; experiment: fluorescence polarization; reduced (control), 1 mM DTT, 10 mM Mg2+, probably nM; 50 mM Tris-HCl pH 7.8, 10 mM MgCl2, 50 mM NaCl (FP: plus 1 mM DTT, 0.5 ml; EMSA: 20 μl, 500 fmol DNA); oxidation 2 mM diamide 15 min on ice, re-reduction 5 mM DTT 15 min on ice; binding temperature not stated; settings: protein: recombinant; tags: His6 on Ku70; copies: 1;1; blunt
Ku70/80ΔC [3] = molecular target: T2, Ku70/80ΔC (human, UniProt P12956;P13010 1-609;1-548); experiment: as above; settings: protein: recombinant; tags: His6 on Ku70; N-terminal His6 (pRSET B) also on Ku80ΔC per Methods; copies: 1;1; blunt
Ku70/Ku80 C493S = Ku70/Ku80 C493S (human, UniProt P12956;P13010 1-609;1-732, C493S); experiment: EMSA; reduced; similar to wild type (data not shown); 50 mM Tris-HCl pH 7.8, 10 mM MgCl2, 50 mM NaCl (FP: plus 1 mM DTT, 0.5 ml; EMSA: 20 μl, 500 fmol DNA); oxidation 2 mM diamide 15 min on ice, re-reduction 5 mM DTT 15 min on ice; binding temperature not stated; settings: protein: recombinant; tags: His6 on Ku70; copies: 1;1; label: 32P; blunt
Ku70/80ΔC [4] = molecular target: T2, Ku70/80ΔC; experiment: EMSA; reduced (control), 10 mM Mg2+, probably nM; 50 mM Tris-HCl pH 7.8, 10 mM MgCl2, 50 mM NaCl (FP: plus 1 mM DTT, 0.5 ml; EMSA: 20 μl, 500 fmol DNA); oxidation 2 mM diamide 15 min on ice, re-reduction 5 mM DTT 15 min on ice; binding temperature not stated; settings: protein: recombinant; tags: His6 on Ku70; N-terminal His6 (pRSET B) also on Ku80ΔC per Methods; copies: 1;1; label: 32P; blunt
Ku70/Ku80 C493A = Ku70/Ku80 C493A (human, UniProt P12956;P13010 1-609;1-732, C493A); experiment: EMSA; reduced; near wild type; 50 mM Tris-HCl pH 7.8, 10 mM MgCl2, 50 mM NaCl (FP: plus 1 mM DTT, 0.5 ml; EMSA: 20 μl, 500 fmol DNA); oxidation 2 mM diamide 15 min on ice, re-reduction 5 mM DTT 15 min on ice; binding temperature not stated; settings: protein: recombinant; tags: His6 on Ku70; copies: 1;1; label: 32P; blunt
[5] = molecular target: T1, Ku70/Ku80 heterodimer, wild type; experiment: EMSA; reduced (control), 10 mM Mg2+, titration was 0-150 nM so probably nM; 50 mM Tris-HCl pH 7.8, 10 mM MgCl2, 50 mM NaCl (FP: plus 1 mM DTT, 0.5 ml; EMSA: 20 μl, 500 fmol DNA); oxidation 2 mM diamide 15 min on ice, re-reduction 5 mM DTT 15 min on ice; binding temperature not stated; settings: protein: recombinant; tags: His6 on Ku70; copies: 1;1; label: 32P; blunt

T1 sequence (P12956 whole entry, chain 1 of 2): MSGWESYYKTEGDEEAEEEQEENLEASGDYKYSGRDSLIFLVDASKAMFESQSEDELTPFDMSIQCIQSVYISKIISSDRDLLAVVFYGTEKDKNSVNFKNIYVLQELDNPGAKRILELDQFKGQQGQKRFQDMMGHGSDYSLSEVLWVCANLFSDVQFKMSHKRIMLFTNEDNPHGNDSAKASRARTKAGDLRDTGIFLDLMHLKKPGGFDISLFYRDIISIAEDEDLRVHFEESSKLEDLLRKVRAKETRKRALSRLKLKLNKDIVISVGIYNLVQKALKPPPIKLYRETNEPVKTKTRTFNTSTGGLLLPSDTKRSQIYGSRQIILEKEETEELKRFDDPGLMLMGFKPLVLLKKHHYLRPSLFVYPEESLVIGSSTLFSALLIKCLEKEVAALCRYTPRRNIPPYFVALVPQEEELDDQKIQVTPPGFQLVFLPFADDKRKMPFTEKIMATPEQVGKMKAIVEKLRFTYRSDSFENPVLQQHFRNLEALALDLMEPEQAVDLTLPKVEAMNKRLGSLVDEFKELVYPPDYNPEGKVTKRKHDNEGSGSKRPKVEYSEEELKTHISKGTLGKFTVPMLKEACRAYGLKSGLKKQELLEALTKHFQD
T1 sequence (P13010 whole entry, chain 2 of 2): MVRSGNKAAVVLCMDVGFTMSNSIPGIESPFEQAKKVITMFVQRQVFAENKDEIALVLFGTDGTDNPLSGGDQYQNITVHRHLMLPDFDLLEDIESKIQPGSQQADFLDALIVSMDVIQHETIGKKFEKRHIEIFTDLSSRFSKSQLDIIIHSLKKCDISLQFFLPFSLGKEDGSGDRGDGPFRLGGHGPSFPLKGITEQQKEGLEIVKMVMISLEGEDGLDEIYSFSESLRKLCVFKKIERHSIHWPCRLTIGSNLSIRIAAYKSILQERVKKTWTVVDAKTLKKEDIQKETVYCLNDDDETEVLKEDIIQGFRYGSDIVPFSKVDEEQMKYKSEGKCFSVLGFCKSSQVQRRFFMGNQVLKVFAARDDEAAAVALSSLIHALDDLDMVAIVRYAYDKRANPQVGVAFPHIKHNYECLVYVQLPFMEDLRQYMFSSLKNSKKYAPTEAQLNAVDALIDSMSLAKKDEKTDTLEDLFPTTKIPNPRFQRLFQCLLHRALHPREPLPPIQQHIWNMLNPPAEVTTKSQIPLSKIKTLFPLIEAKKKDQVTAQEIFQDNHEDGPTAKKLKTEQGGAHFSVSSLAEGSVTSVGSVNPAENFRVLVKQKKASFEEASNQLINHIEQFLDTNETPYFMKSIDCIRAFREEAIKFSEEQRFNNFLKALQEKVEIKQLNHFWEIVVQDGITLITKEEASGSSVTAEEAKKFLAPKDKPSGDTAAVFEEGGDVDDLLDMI
T2 sequence (P12956 whole entry, stated change not applied, chain 1 of 2): as the sequence (P12956 whole entry, chain 1 of 2) above
T2 sequence (P13010 1-548, stated change not applied, chain 2 of 2): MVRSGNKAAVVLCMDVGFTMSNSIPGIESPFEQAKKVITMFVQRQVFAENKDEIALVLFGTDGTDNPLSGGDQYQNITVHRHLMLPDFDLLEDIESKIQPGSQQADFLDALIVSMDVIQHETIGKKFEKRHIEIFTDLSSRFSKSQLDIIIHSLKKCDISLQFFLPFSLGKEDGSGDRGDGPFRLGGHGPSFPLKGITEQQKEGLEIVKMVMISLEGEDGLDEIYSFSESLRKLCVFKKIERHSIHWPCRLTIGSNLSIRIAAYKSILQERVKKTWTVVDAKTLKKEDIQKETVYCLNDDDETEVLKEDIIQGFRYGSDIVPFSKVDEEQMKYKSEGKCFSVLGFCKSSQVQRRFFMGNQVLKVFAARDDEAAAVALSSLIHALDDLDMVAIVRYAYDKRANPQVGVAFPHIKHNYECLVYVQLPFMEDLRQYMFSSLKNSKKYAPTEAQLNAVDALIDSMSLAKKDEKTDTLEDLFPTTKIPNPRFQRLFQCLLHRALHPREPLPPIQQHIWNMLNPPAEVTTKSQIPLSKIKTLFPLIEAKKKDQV
Chain of Ku70/Ku80 C493A (P12956 whole entry, chain 1 of 2): as the sequence (P12956 whole entry, chain 1 of 2) above
Chain of Ku70/Ku80 C493A (P13010 whole entry C493A, chain 2 of 2): as the sequence (P13010 whole entry, chain 2 of 2) above, with C493A counted along it
Chain of Ku70/Ku80 C493S (P12956 whole entry, chain 1 of 2): as the sequence (P12956 whole entry, chain 1 of 2) above
Chain of Ku70/Ku80 C493S (P13010 whole entry C493S, chain 2 of 2): as the sequence (P13010 whole entry, chain 2 of 2) above, with C493S counted along it

Binder	Kd [1]	Kd [2]	Kd (Ku70/80ΔC [3])	binding result (Ku70/Ku80 C493S)	Kd (Ku70/80ΔC [4])	binding result (Ku70/Ku80 C493A)	Kd [5]
30-bp duplex 30A/30C, fluorescein (polarization) (dsDNA) DNA 1: CCCCTATCCTTTCCGCGTCCTTACTTCCCC DNA 2: GGGGAAGTAAGGACGCGGAAAGGATAGGGG	31.4 ± 3 nM	25.8 ± 2.3 nM	25.7 ± 1.5 nM	–	–	–	–
30-bp duplex 30A/30C (EMSA) (dsDNA) DNA 1: CCCCTATCCTTTCCGCGTCCTTACTTCCCC DNA 2: GGGGAAGTAAGGACGCGGAAAGGATAGGGG	–	–	–	binds	51 ± 7.7 nM	binds	29.7 ± 2.5 nM
